Test results from article PMC10873642.

Target: α-synuclein, 140-residue isoform (αSyn-140) (human) (UniProt P37840)

Which decrease in aggregation half-time (t1/2) by ThT fluorescence of 90% (45 µM) αSyn-140 co-incubated with 10% (5 µM) αSyn-112 monomers, against 100% (50 µM) αSyn-140 does the source give for “α-synuclein splice isoform αSyn-112 (lacking exon 5) (from UniProt P37840-2 1-112) (natural protein)” here?
The decrease in aggregation half-time (t1/2) by ThT fluorescence of 90% (45 µM) αSyn-140 co-incubated with 10% (5 µM) αSyn-112 monomers, against 100% (50 µM) αSyn-140 was 25%.
